Values joined by “and” are separate entries in the source; they are usually repeats but may differ in a detail not shown here. Equal entries are not always repeated.
Legend:
[1] = biological target: Pichia pastoris Pex5 full length (tag removed) (Pichia pastoris) (UniProt P33292); assay: SEC-SAXS
[2] = biological target: Pichia pastoris Pex5 CTD (residues 259-576, tag removed) (Pichia pastoris) (UniProt P33292); assay: SEC-SAXS
[3] = biological target: Pichia pastoris Pex5 NTD (residues 1-276, tag removed) (Pichia pastoris) (UniProt P33292); assay: SEC-SAXS
[4] = biological target: Pichia pastoris Pex5 full length (tag removed) (Pichia pastoris) (UniProt P33292); assay: ITC
[5] = biological target: Pex5 NTD variants (the Pex5 single E57R mutant and the double mutants R45E/R48E and M61A/F64A); assay: BLI
[6] = biological target: 6xHis-GST-tagged Pichia pastoris Pex5 CTD (residues 259-576) (Pichia pastoris) (UniProt P33292); assay: BLI
[7] = biological target: 6xHis-GST-tagged Pichia pastoris Pex5 full length (Pichia pastoris) (UniProt P33292); assay: BLI
[8] = biological target: 6xHis-GST-tagged Pichia pastoris Pex5 NTD (residues 1-276) (Pichia pastoris) (UniProt P33292); assay: BLI

Substance	stoichiometry N [1]	stoichiometry N [2]	stoichiometry N [3]	stoichiometry N [4]	fold increase in KD against Pex5 NTD WT [5]	Kd [6] [nM]	Kd [7] [nM]	Kd [8] [nM]
Pichia pastoris Pex8 (residues 33-713), N-terminally truncated (domain or fragment)	1	1	1	1	6 fold and 8 fold	4400	78	683
Pichia pastoris Pex8 (ΔPTS1) (domain or fragment)							478	
